doi:10.1101/094961 (bioRxiv, 2017)

Target: RNAP β' subunit with 6his tag (rpoC-6his), in purified δ-containing RNAP (B. subtilis, UniProt P37871 1-1199)
Test: cross-linking

Sequence of RNAP β' subunit with 6his tag (rpoC-6his), in purified δ-containing RNAP (P37871 whole entry, stated change not applied): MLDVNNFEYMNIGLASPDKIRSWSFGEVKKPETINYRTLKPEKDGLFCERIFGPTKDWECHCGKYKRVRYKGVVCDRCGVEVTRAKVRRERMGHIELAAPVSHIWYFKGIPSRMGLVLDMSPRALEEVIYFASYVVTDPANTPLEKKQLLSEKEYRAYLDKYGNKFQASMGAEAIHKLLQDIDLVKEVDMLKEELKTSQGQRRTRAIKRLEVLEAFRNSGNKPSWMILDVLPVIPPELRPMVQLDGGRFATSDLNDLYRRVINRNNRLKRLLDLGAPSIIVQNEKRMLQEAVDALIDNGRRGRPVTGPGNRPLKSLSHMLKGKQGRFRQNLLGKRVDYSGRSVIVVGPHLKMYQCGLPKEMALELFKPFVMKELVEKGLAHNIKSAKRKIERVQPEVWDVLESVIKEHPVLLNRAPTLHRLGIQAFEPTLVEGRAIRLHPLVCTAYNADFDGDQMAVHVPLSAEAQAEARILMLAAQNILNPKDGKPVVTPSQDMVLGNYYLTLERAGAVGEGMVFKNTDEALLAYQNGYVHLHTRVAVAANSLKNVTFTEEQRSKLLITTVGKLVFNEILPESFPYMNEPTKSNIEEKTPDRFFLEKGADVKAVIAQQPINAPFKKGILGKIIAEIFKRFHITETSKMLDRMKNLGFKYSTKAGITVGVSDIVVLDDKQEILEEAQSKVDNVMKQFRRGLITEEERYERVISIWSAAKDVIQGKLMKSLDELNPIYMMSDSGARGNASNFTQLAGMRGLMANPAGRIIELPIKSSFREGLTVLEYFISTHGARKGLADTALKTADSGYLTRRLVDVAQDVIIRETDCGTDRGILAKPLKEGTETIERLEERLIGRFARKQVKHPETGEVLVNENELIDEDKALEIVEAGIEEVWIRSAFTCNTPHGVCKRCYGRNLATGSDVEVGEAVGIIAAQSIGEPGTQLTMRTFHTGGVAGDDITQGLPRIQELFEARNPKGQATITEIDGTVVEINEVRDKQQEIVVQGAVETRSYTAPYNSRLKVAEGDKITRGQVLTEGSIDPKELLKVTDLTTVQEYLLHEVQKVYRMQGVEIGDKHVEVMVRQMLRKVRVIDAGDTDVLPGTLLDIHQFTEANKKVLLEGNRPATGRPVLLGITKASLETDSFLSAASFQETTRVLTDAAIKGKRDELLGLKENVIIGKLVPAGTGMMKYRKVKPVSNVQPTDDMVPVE

binding result: binds
B1: δ subunit (RpoE) of RNA polymerase (natural protein, UniProt P12464 1-173, looked up)
chain: MGIKQYSQEELKEMALVEIAHELFEEHKKPVPFQELLNEIASLLGVKKEELGDRIAQFYTDLNIDGRFLALSDQTWGLRSWYPYDQLDEETQPTVKAKKKKAKKAVEEDLDLDEFEEIDEDDLDLDEVEEELDLEADDFDEEDLDEDDDDLEIEEDIIDEDDEDYDDEEEEIK
